From US20210253725A1 (BIONTECH, published 2021)

T1: CD134 expressed on the cell surface of HT1080_OX40 cells (human, UniProt P43489 29-277)
T1 sequence (looked up): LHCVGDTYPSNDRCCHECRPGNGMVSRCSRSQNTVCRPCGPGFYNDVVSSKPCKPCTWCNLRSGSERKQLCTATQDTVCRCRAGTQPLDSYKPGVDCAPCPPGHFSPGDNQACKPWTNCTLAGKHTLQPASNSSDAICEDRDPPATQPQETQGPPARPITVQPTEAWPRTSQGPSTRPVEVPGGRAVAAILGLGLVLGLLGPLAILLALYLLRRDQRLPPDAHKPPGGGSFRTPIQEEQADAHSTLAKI

T2: CD27 expressed on the cell surface of HT1080_CD27 cells (human, UniProt P26842 20-260)
T2 construct: whole, on cells; species not restated for the HT1080 transfectant
T2 sequence (looked up): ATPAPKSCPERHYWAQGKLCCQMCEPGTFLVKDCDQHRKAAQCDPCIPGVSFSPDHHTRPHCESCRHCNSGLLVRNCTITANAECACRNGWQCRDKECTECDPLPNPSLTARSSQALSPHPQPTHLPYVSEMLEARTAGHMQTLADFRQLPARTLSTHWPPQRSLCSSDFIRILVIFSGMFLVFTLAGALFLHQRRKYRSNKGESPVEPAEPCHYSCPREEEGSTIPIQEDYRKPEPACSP

T3: CD134 protein (His-tagged, Sino Biological Inc. 10481-H08H) (human, UniProt P43489 29-216)
T3 construct: bought protein coated on ELISA plates; also called OX40; TNFRSF4; not shown: His tag
T3 sequence (looked up): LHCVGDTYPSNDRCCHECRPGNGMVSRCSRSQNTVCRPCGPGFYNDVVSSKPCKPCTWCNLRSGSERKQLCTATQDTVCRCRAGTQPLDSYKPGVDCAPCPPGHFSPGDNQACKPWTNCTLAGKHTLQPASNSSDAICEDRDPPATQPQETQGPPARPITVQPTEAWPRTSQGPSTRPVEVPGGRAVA

T4: CD27 protein (His-tagged, Sino Biological Inc. 10039-H08B1) (human, UniProt P26842 20-192)
T4 construct: bought protein coated on ELISA plates; also called TNFRSF7; not shown: His tag
T4 sequence (looked up): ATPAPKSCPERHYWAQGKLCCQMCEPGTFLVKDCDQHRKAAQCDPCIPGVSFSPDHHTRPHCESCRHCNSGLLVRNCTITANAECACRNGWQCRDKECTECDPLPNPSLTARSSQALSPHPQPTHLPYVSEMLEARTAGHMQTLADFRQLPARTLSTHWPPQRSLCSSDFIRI

B1: P018.S.11.A.E05 (antibody, V domains shown)
VH: QSLEESGGRLVTPGTPLTLNCTASGFSLSAYWMGWVRQAPGKGLEWIGIIYATGSTYYTTWAKGRFTISRTSTTVDLKMTSPTTEDTATYFCGRGDGYESLNLWGPGTLVTVSS
VL: AQVLTQTPSSVSAAVGGTVTINCQSSQSVYSNNLLSWYQQKPGQPPKRLIYGASTLDSGVSSRFKGSGSGTQFTLTISGMQSDDAATYYCLGYYSGGIYVFGGGTEVVVK
notes: V regions on human Ig constant parts; also called AB134_36
B2: P018.S.12.A.A04 (antibody, V domains shown)
VH: QSVEESGGRLVTPGTPLTLTCTVSGIDLSSYAMSWVRQAPGKGLEYIGIISGSGNTYYASWAKGRFTISKTSTTVDLKISSPTTEDTATYFCCRGDPSYSIDGFDPWGPGTLVTVSS
VL: AAVLTQTPSPVSAAVGGTVTINCQSSQSVYNNNDLAWYQQKPGQPPKLLIYRASNLASGVPSRFSGSGSGTQFTLTISGVQSGDAATYYCLGAWDDDADTWAFGGGTEVVVE
notes: V regions on human Ig constant parts; also called AB134_53
B3: P018.S.04.A.E01 (antibody, V domains shown)
VH: QSVEESGGRLVTPGTPLTLTCTASGFSLSSSWMSWVRQAPGKGLEFIGFINTGGRAFYATWASGRFTISRTSTKVDLEITSPTSEDTATYFCVRGAAGYPEYDDGDLWGQGTLVTVSS
VL: AQVLTQTLSPVSAAVGGTVTINCQSSPSVYHNNWLSWFQKKPGQPPKLLIYEASKLASGVPPRFSGSGSGTQFTLTISGVQSDDAATYYCAGSFSDNIYTFGGGTAMVVK
notes: V regions on human Ig constant parts; also called AB134_10
B4: P018.S.11.A.H04 (antibody, V domains shown)
VH: QEQLEESGGDLVKPGASLTLTCTASGLSFSGSYWICWVRQAPGKGLEWIGCITAGISGSTYYASWAKGRFTISKTSSTTVTLQMTSLTAADTATYFCARERTGGWGDFNLWGPGTLVTVSS
VL: DVVMTQTPASVEAAVGGTVTIKCQASQSITTYLSWYQQKPGQPPKLLIYLASTLESGVPSRFKGSRSGTEYTLTISDLESADAATYYCQCTDGGINHWFWAFGGGTEVVVK
notes: V regions on human Ig constant parts; also called AB134_47
B5: P018.S.12.A.H03 (antibody, V domains shown)
VH: QSLEESRGGLVQPEGSLTLTCKASGFSFSSGYYMCWVRQAPGKGLEWIGCIYSGSDSACYASWAKGRFTISKTSSTTVTLQMTSLTVADTATYFCVRDLGDYNALSYTINLWGPGTLVTVSS
VL: DVVMTQTPSSVSAAVGGTVTIKCQASQSISTNLAWYQEKAGQPPKLLIYRASTVASGVPSRFKGSGSGTQFTLTISDLESADATTYFCQCIDYDDYGGTFGGGTEVVVK
notes: V regions on human Ig constant parts; also called AB134_89
B6: P018.S.11.A.F02 (antibody, V domains shown)
VH: QSVEESGGRLVTPGTPLTLTCTASGFSLSNYNMGWVRQAPGEGLEWIGHISTDGSAYYASWAKGRFTISKTSTTVDLKITSPTTEDTGTYFCARLYYRHGYALNLWGQGTLVTVSS
VL: DIVMTQTPASVSEPVGGTVTIKCQASQSVGSYLAWYQQKSGQPPKLLIYSASTLASGVPSRFKGSGSGTEFTLTISDLVSADAATYYCHCTYGSNITANWGTFGGGTGVVVK
notes: V regions on human Ig constant parts; also called AB134_38
B7: P018.S.12.A.A02 (antibody, V domains shown)
VH: QSLEESGGRLVTPGTPLTLTCTASGFSLSTYYMTWVRQAPGKGLEWIGDIYVRGGARYANWAKGRFTISRTSTTVDLRITSPTTEDTATYFCAREGLSLWGQGTLVTVSS
VL: AQVLTQTASPVSAAVGGTVTINCQSSQSVYKNNRLAWYQQKPGQPPKLLIYETSKLESGVSSRFKGSGSGTQFTLTISGVQSDDAATYYCLGGYDCGSADCNAFGGGTEVVVK
notes: V regions on human Ig constant parts; also called AB134_51
B8: P018.S.13.A.G06 (antibody, V domains shown)
VH: QSLEESGGGLVKPGASLTLTCKASGFDLSSYYYMCWVRQAPGKGLEWIGCFYTDDSANTWYATWAKGRFTISKTSSTTVTLQMTSLTAADTATYFCARDASGWYWFNLWGPGTLVTVSS
VL: AQVLTQTPSPVSAAVGGTVTISCQSSQSLHDDNALAWYQQKPGQPPKLLIYLASYLASGVPSRFKGSGSGTQFTLTISEVQSDDAATYYCQGAYSGDNNSFGGGTEVVVK
notes: V regions on human Ig constant parts; also called AB134_92
B9: P018.S.04.A.E05 (antibody, V domains shown)
VH: QSLEESGGDLVKPGASLTLTCTASGFSFSSDYYMCWVRQAPGKGLEWIACISAGSSGSIYYASWAKGRFTISKTSSTTVTLQMTSLTAADTATYFCAREASDSIYYPIFNLWGPGTLVTVSS
VL: AAVLTQTPSPVSAAVGGTVSISCQSSKSVYNNNALSWFQQKPGQPPKLLIYGASTLPSRVPSRFKGSGSGTQFTLTISDVQSDDAATYYCIGGYSSSSDTNAFGGGTEVVVK
notes: V regions on human Ig constant parts; also called AB27_76
B10: P018.S.01.A.E02 (antibody, V domains shown)
VH: QSVEESGGRLVTPGTPLTLTCTASGFSLSNYYMSWVRQAPGKGLEWIGIISTYGDTYYATWAKGRFTISKTSTTVDLKITSPTTEDTATYFCARGSSDTYYTYFNLWGPGTLVTVSS
VL: DIVMTQTPASVEAAVGGTVTIKCQASQKIYNNLAWYQQKPGQPPKLLIYSASTLASGVPSRFKGSGSGTEFTLTISDLESADAATYYCQSYGVSANTISYGLPFGGGTEVVVK
notes: V regions on human Ig constant parts; also called AB27_14
B11: P018.S.03.A.D05 (antibody, V domains shown)
VH: QSLEESGGRLVTPGTPLTLTCTASGFSLSSYYITWVRQAPGEGLEWIGTISTAGNTYFASWANGRFTISRTSTTVDLKMTSPTTEDTATYFCARDGAGDSNYYRNLWGQGTLVTVSS
VL: DIVLTQTPASVEAAVGGTVTIKCQASQSIDRFLAWYQQKPGQPPKLLIYDASDLASGVPSRFSGSGYGTEFTLTISGVQSEDAATYYCQQGYYISDIHNVFGGGTEVVVK
notes: V regions on human Ig constant parts; also called AB27_50
B12: P018.S.09.A.G06 (antibody, V domains shown)
VH: QSVEESGGRLVTPGTPLTLTCTASGFSLSNYHMSWVRQAPGKGLEWIGIIYAGSDSTWYASWAKGRFTISKTSTTVDLKITSPTTEDTATYFCARQPGGGASDTQLDLWGQGTLVTVSS
VL: AAVLTQTASPVSAAVGGTVTINCQSSQNIFDNNQLSWFQHKSGQSPKLLIYRASTLASGVPSRFKGSGSGTQFTLTISDVQSDDAATYYCLGGYSSSSDTVFGGGTEVVVK
notes: V regions on human Ig constant parts; also called AB27_159
B13: P018.S.10.A.B02 (antibody, V domains shown)
VH: QSVEESGGRLVTPGGSLTLSCTVNGFSLSSHGVSWVRQAPGKGLEWIGIIYVISGHAYYASWAKGRFTISKTSTTVDLKIASPTTEDTATYFCARGNYGSDSGPNFTRLDLWGQGTLVTVSS
VL: AQVLTQTPSPVSATVGGTLTINCQASQSLYNNDYLAWYQQKPGQPPKLLIYLASTLASGVSSRFKGSGSGTQFTLTISGVQSDDAATYYCQGEFSCSSGDCLAFGGGTEVVVK
notes: V regions on human Ig constant parts; also called AB27_167
B14: P018.S.09.A.F05 (antibody, V domains shown)
VH: QEQLEESGGDLVKPGASLTLTCTASGFSFSSNYCMCWVRQAPGKGLEWIACICAGASGATYYASWAKGRFTVSKTSSTTVTLQMTSLTGADTATYFCARYDNSGWGDFKLWGPGTLVTVSS
VL: DIVMTQTPASVSEPVGGTVTINCQASQNIGTYLAWYQQKPGQRPKLLIYAASYLASGVPSRFKGSGSGTEVALTISDLESADAATYYCQNTYYDSPVVGGAFGGGTEVVVK
notes: V regions on human Ig constant parts; also called AB27_157

What follows are binders tested against T1, CD134 expressed on the cell surface of … (assay: cell-based or functional assay).
Also: test concentration or dose not given here.

Row | Functional assay Cross-linked by F(ab′)2 fragment IL-8 | Functional assay IL-8 | Binder
1 | 1.42 abs. corr. | -0.265 abs. corr. | B1
2 | 1.4 abs. corr. | -0.007 abs. corr. | B2
3 | 1.41 abs. corr. | 0.084 abs. corr. | B3
4 | 1.61 abs. corr. | 0.61 abs. corr. | B4
5 | 1.27 abs. corr. | -0.074 abs. corr. | B5
6 | 1.38 abs. corr. | -0.011 abs. corr. | B6
7 | 1.57 abs. corr. | 0.145 abs. corr. | B7
8 | 1.58 abs. corr. | -0.114 abs. corr. | B8

The binders below were run against T2, CD27 expressed on the cell surface of … (assay: HT1080_CD27 cells, imaging).

Row | Cellular binding assay [RFU] | Binder
9 | 319 RFU | B9
10 | 360 RFU | B10
11 | 324 RFU | B11
12 | 338 RFU | B12
13 | 249 RFU | B13
14 | 400 RFU | B14

Each binder was assayed against T3, CD134 protein (His-tagged, Sino …) (assay: ELISA, coated His-tagged CD134).

Row | ELISA [abs. corr.] | Binder
15 | 1.66 abs. corr. | B1
16 | 1.99 abs. corr. | B2
17 | 2.88 abs. corr. | B3
18 | 2.65 abs. corr. | B4
19 | 2.48 abs. corr. | B5
20 | 2.43 abs. corr. | B6
21 | 1.58 abs. corr. | B7
22 | 0.002 abs. corr. | B8

Each binder was assayed against T2, CD27 expressed on the cell surface of … (assay: cell-based or functional assay).

Row | Functional assay Cross-linked by F(ab′)2 fragment IL-8 | Functional assay IL-8 | Binder
23 | 1.77 abs. corr. | 0.747 abs. corr. | B9
24 | 1.17 abs. corr. | 0.276 abs. corr. | B10
25 | 1.5 abs. corr. | 0.5 abs. corr. | B11
26 | 1.34 abs. corr. | 0.467 abs. corr. | B12
27 | 1.91 abs. corr. | 0.47 abs. corr. | B13
28 | 1.68 abs. corr. | 0.158 abs. corr. | B14

Each binder was assayed against T4, CD27 protein (His-tagged, Sino …) (assay: ELISA, coated His-tagged CD27).

Row | ELISA [abs. corr.] | Binder
29 | 3.11 abs. corr. | B9
30 | 3.13 abs. corr. | B10
31 | 3.12 abs. corr. | B11
32 | 3.12 abs. corr. | B12
33 | 3.11 abs. corr. | B13
34 | 3.12 abs. corr. | B14

Each binder was assayed against T1, CD134 expressed on the cell surface of … (assay: HT1080_OX40 cells, imaging).

Row | Cellular binding assay [RFU] | Binder
35 | 407 RFU | B1
36 | 514 RFU | B2
37 | 22 RFU | B3
38 | 382 RFU | B4
39 | 496 RFU | B5
40 | 503 RFU | B6
41 | 502 RFU | B7
42 | 0 RFU | B8
